Laboratory results published in US20200085917A1.

Key:
Assay in all cases: GST pull-down, LC-MS/MS
[1] = target: Mrpl43_IPI:IPI00278781.1 (mouse) (UniProt Q99N89)
[2] = target: Ywhaz_IPI:IPI00116498.1 (mouse) (UniProt P63101)
[3] = target: Coq3_IPI:IPI00467124.2 (mouse) (UniProt Q8BMS4)
[4] = target: Acp6_IPI:IPI00624175.1 (mouse) (UniProt Q8BP40)
[5] = target: Pycr2_IPI:IPI00123278.1 (mouse) (UniProt Q922Q4)
[6] = target: 2900010M23Rik_IPI:IPI00133350.1 (mouse)
[7] = target: Sfxn1_IPI:IPI00115454.3 (mouse) (UniProt Q99JR1)
[8] = target: Dsg1c_IPI:IPI00331259.3 (mouse) (UniProt Q7TSF0)
[9] = target: Fis1_IPI:IPI00132217.1 (mouse) (UniProt Q9CQ92)
[10] = target: Mthfd1l_IPI:IPI00228113.5 (mouse) (UniProt Q3V3R1)
[11] = target: Tpi1_IPI:IPI00467833.6 (mouse) (UniProt P17751)
[12] = target: Dnajc19_IPI:IPI00111111.5 (mouse) (UniProt Q9CQV7)
[13] = target: 1700020C11Rik_IPI:IPI00315908.1 (mouse)
[14] = target: Slc25a19_IPI:IPI00118826.1 (mouse) (UniProt Q9DAM5)
[15] = target: Ndufa11_IPI:IPI00318645.6 (mouse) (UniProt Q9D8B4)
[16] = target: Dsp_IPI:IPI00553419.3 (mouse) (UniProt E9Q557)
[17] = target: Rab2a_IPI:IPI00137227.1 (mouse) (UniProt P53994)
[18] = target: Gm6180_IPI:IPI00409405.2 (mouse)
[19] = target: Afg3l2_IPI:IPI00170357.5 (mouse) (UniProt Q8JZQ2)
[20] = target: Rab15_IPI:IPI00170032.1 (mouse) (UniProt Q8K386)
[21] = target: Pptc7_IPI:IPI00421081.3 (mouse) (UniProt Q6NVE9)
[22] = target: Cisd1_IPI:IPI00128346.1 (mouse) (UniProt Q91WS0)
[23] = target: Synj2bp_IPI:IPI00109206.1 (mouse) (UniProt Q9D6K5)
[24] = target: Mrpl14_IPI:IPI00133778.1 (mouse) (UniProt Q9D1I6)
[25] = target: Nsf_IPI:IPI00656325.2 (mouse) (UniProt P46460)
[26] = target: Dnaja3_IPI:IPI00120414.1 (mouse) (UniProt Q99M87)
[27] = target: Hsdl1_IPI:IPI00225301.1 (mouse) (UniProt Q8BTX9)
[28] = target: Cyc1_IPI:IPI00132728.2 (mouse) (UniProt Q9D0M3)
[29] = target: Chchd3_IPI:IPI00133562.1 (mouse) (UniProt Q9CRB9)
[30] = target: Dci_IPI:IPI00114416.1 (mouse) (UniProt P42125)
[31] = target: Nup210l_IPI:IPI00356451.5 (mouse) (UniProt Q9D2F7)
[32] = target: Gnao1_IPI:IPI00115546.4 (mouse) (UniProt P18872)
[33] = target: Snap25_IPI:IPI00125635.1 (mouse) (UniProt P60879)

Chain of Cisd1_IPI:IPI00128346.1 (mouse) (Q91WS0 whole entry): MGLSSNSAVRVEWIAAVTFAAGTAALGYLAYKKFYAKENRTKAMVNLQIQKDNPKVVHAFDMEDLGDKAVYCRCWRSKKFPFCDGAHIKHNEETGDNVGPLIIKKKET
Chain of Cyc1_IPI:IPI00132728.2 (mouse) (Q9D0M3 85-325 limits assumed): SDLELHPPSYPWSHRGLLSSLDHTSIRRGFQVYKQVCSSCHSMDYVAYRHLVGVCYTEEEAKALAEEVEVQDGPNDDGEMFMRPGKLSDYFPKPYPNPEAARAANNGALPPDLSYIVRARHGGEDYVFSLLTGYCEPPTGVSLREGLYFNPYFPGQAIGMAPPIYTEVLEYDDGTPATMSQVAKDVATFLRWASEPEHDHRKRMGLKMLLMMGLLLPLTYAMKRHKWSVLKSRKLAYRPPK
Chain of Dsp_IPI:IPI00553419.3 (mouse) (E9Q557 whole entry): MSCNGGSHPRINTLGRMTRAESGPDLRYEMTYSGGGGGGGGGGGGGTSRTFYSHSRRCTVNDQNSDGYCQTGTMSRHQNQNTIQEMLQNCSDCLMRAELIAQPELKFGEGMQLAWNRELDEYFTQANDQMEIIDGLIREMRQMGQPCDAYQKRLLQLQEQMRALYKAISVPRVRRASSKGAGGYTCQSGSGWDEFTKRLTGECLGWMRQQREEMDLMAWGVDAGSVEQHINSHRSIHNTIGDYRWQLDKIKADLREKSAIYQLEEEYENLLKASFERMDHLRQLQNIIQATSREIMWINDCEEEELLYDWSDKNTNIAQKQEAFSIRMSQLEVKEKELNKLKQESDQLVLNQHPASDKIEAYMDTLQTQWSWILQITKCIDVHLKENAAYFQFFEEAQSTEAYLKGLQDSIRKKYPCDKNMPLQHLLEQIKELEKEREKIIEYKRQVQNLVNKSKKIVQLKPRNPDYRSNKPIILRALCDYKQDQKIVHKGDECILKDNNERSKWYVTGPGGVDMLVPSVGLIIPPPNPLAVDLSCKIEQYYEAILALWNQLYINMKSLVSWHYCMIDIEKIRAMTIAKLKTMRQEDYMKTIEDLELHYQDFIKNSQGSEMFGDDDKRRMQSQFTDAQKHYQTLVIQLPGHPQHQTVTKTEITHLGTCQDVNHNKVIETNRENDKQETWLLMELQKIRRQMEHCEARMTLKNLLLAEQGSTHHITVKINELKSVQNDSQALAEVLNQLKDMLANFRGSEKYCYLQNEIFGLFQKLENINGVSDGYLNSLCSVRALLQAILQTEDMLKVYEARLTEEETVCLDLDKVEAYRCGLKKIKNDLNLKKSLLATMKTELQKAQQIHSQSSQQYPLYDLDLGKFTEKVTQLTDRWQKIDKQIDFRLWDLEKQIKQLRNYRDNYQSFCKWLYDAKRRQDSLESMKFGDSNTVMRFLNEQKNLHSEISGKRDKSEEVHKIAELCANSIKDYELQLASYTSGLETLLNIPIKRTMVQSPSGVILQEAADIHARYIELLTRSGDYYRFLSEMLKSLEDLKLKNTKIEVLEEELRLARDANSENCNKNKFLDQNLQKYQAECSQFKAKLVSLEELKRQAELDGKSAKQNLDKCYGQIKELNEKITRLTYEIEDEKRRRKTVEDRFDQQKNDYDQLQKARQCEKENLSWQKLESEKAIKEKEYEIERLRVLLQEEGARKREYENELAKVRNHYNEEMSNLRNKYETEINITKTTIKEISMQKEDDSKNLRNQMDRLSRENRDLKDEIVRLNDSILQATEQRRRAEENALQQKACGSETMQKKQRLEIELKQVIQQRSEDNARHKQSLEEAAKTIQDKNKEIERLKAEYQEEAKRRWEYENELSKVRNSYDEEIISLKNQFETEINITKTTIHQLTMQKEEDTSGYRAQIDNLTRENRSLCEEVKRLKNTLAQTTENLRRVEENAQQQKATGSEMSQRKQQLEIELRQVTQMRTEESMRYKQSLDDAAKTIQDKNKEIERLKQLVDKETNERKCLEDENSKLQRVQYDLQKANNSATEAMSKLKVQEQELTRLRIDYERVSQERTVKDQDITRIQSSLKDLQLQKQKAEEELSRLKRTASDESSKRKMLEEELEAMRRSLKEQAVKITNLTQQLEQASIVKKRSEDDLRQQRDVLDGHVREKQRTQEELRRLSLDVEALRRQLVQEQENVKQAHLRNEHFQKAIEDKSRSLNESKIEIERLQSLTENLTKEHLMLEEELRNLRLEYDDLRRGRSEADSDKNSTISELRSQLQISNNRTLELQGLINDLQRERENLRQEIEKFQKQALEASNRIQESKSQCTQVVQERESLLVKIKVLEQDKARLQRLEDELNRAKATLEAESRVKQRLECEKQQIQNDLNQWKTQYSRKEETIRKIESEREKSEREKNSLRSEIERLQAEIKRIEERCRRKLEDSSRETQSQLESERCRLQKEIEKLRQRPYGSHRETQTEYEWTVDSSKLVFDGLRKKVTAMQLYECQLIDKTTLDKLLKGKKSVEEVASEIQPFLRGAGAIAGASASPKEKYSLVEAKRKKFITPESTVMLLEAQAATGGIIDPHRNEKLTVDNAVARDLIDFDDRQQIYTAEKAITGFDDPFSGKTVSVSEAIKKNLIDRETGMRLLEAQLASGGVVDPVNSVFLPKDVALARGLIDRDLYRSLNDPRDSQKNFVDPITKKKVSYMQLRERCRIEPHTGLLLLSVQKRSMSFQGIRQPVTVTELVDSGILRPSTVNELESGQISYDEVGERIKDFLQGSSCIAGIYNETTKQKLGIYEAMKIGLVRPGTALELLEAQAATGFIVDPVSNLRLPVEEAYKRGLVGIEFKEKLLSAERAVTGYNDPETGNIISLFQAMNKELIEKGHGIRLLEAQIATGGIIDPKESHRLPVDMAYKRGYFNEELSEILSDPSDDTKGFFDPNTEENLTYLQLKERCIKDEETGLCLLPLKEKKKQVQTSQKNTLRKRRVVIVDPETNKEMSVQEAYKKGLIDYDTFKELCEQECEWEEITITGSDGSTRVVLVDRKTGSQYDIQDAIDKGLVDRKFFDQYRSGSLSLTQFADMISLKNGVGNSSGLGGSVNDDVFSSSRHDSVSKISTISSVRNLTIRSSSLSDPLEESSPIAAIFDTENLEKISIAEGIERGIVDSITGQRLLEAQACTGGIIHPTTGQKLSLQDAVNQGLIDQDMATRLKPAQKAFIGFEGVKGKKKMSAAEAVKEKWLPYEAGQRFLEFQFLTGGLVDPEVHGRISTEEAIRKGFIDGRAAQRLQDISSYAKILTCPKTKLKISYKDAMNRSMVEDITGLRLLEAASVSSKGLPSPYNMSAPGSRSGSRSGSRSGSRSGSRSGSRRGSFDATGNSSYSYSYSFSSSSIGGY
Chain of Rab2a_IPI:IPI00137227.1 (mouse) (P53994 2-212 limits assumed): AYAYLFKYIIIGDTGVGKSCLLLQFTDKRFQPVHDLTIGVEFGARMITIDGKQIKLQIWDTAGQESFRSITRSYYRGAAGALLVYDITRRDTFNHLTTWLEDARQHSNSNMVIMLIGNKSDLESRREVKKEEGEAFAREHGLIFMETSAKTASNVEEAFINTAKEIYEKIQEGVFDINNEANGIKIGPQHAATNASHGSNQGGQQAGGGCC
Chain of Dnajc19_IPI:IPI00111111.5 (mouse) (Q9CQV7 2-116 limits assumed): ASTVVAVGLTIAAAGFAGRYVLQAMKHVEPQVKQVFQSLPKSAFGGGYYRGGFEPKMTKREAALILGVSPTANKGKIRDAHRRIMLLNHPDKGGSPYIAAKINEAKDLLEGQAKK
Chain of Dnaja3_IPI:IPI00120414.1 (mouse) (Q99M87 whole entry): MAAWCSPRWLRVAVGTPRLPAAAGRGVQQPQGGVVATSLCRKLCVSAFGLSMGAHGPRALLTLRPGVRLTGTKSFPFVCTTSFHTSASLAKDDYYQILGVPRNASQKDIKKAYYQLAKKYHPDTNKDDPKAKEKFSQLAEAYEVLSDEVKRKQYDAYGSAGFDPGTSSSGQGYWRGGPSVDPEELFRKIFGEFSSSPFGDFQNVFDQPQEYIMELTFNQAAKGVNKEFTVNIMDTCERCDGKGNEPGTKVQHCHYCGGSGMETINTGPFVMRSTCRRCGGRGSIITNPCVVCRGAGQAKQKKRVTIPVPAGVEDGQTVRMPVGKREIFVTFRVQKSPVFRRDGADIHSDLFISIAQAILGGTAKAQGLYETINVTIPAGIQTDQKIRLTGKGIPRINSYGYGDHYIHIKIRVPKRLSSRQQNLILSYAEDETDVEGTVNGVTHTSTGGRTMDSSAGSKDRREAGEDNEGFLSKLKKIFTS
Chain of Afg3l2_IPI:IPI00170357.5 (mouse) (Q8JZQ2 67-802 limits assumed): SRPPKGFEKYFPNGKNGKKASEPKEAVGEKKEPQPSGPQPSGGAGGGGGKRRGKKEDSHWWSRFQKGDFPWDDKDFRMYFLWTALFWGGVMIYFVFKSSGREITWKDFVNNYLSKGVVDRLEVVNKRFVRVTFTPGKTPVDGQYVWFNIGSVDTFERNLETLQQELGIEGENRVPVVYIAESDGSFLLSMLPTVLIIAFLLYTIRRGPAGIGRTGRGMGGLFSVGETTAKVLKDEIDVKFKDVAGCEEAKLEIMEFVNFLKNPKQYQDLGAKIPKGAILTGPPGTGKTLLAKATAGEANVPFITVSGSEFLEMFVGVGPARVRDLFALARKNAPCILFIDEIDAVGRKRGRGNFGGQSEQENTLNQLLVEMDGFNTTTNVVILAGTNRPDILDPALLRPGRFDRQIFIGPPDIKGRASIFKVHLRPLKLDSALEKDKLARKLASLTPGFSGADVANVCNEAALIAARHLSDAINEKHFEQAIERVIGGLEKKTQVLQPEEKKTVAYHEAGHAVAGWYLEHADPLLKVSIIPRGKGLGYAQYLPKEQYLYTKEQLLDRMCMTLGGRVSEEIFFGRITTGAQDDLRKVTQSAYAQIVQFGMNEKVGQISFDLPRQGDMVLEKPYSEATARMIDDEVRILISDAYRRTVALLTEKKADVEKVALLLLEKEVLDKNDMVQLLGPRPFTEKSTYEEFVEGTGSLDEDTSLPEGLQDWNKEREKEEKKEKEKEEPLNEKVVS
Chain of Chchd3_IPI:IPI00133562.1 (mouse) (Q9CRB9 2-227 limits assumed): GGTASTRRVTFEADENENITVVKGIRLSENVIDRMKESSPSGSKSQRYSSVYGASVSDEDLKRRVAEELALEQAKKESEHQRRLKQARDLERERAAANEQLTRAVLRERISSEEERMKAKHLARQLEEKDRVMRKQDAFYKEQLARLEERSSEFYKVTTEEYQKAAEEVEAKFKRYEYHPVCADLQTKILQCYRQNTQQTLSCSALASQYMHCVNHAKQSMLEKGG

No. of total peptides [1]: 1 peptides
No. of unique peptides [1]: 1 peptides
No. of total peptides [2]: 1 peptides
No. of unique peptides [2]: 1 peptides
No. of total peptides [3]: 2 peptides
No. of unique peptides [3]: 1 peptides
No. of total peptides [4]: 2 peptides
No. of unique peptides [4]: 2 peptides
No. of total peptides [5]: 1 peptides
No. of unique peptides [5]: 1 peptides
No. of total peptides [6]: 1 peptides
No. of unique peptides [6]: 1 peptides
No. of total peptides [7]: 2 peptides
No. of unique peptides [7]: 2 peptides
No. of total peptides [8]: 1 peptides
No. of unique peptides [8]: 1 peptides
No. of total peptides [9]: 2 peptides
No. of unique peptides [9]: 2 peptides
No. of total peptides [10]: 2 peptides
No. of unique peptides [10]: 2 peptides
No. of total peptides [11]: 1 peptides
No. of unique peptides [11]: 1 peptides
No. of total peptides [12]: 1 peptides
No. of unique peptides [12]: 1 peptides
No. of total peptides [13]: 1 peptides
No. of unique peptides [13]: 1 peptides
No. of total peptides [14]: 1 peptides
No. of unique peptides [14]: 1 peptides
No. of total peptides [15]: 1 peptides
No. of unique peptides [15]: 1 peptides
No. of total peptides [16]: 4 peptides
No. of unique peptides [16]: 4 peptides
No. of total peptides [17]: 1 peptides
No. of unique peptides [17]: 1 peptides
No. of total peptides [18]: 1 peptides
No. of unique peptides [18]: 1 peptides
No. of total peptides [19]: 5 peptides
No. of unique peptides [19]: 4 peptides
No. of total peptides [20]: 1 peptides
No. of unique peptides [20]: 1 peptides
No. of total peptides [21]: 1 peptides
No. of unique peptides [21]: 1 peptides
No. of total peptides [22]: 3 peptides
No. of unique peptides [22]: 2 peptides
No. of total peptides [23]: 1 peptides
No. of unique peptides [23]: 1 peptides
No. of total peptides [24]: 4 peptides
No. of unique peptides [24]: 3 peptides
No. of total peptides [25]: 1 peptides
No. of unique peptides [25]: 1 peptides
No. of total peptides [26]: 1 peptides
No. of unique peptides [26]: 1 peptides
No. of total peptides [27]: 2 peptides
No. of unique peptides [27]: 2 peptides
No. of total peptides [28]: 1 peptides
No. of unique peptides [28]: 1 peptides
No. of total peptides [29]: 2 peptides
No. of unique peptides [29]: 2 peptides
No. of total peptides [30]: 7 peptides
No. of unique peptides [30]: 6 peptides
No. of total peptides [31]: 1 peptides
No. of unique peptides [31]: 1 peptides
No. of total peptides [32]: 3 peptides
No. of unique peptides [32]: 3 peptides
No. of total peptides [33]: 1 peptides
No. of unique peptides [33]: 1 peptides
Substance: GST-Httex1-97Q (from UniProt P08515 1-218; P42858 1-88)
